Drawing on US20220332804A1 (CSL INNOVATION, published 2022), this text covers Fold diff for one molecule.

Holding throughout (assay): SPR; KD relative to WT C2;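 further: biacore SPR at 37 °C, anti-C2 mAbs captured on an anti-human IgG chip, alanine or serine C2 surface mutants tested, KD from 1:1 fit compared with wild-type C2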
The target of one test is T1, human C2 N268A (human, UniProt P06681 21-752).
T1 sequence: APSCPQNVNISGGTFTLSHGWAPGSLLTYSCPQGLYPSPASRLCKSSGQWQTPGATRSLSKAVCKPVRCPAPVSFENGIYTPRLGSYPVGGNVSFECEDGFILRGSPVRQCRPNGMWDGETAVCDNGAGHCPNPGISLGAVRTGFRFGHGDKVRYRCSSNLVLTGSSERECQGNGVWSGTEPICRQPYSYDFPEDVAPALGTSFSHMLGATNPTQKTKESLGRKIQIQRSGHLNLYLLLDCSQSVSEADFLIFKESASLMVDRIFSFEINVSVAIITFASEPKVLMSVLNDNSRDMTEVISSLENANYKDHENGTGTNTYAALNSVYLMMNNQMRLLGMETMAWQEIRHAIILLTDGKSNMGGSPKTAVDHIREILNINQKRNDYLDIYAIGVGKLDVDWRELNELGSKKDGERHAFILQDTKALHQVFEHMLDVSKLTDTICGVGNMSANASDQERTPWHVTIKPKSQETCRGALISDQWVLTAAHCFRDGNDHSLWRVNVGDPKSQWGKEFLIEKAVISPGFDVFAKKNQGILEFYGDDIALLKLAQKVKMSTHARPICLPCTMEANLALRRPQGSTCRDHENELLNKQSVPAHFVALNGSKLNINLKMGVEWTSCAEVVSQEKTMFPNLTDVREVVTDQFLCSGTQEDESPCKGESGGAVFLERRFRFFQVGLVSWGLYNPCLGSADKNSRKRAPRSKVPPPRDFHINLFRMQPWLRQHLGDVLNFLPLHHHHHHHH

In another test the target is T2, human C2 M316A (human, UniProt P06681 21-752).
T2 sequence: T1 sequence with A248N, M296A

For another test, the target named is T3, human C2 V418A (human, UniProt P06681 21-752).
T3 sequence: T1 sequence with A248N, V398A

Another test has as its target T4, human C2 S473A (human, UniProt P06681 21-752).
T4 sequence: T1 sequence with A248N, S453A

Positions count from the first letter of the chain named.

B1: RF16-214 (antibody, V domains shown)
VH: EVQLLESGGGLVQPGGSLRLSCAASGFTFSWYQMMWVRQAPGKGLEWVSRIYPSGGGTAYADSVKGRFTISRDNSKNTLYLQMNSLRAEDTAVYYCARDAGYGDNWGQGTLVTVSS
VL: QSALTQPPSVSVSPGQTASITCSGDKLGEKYASWYQQKAGQSPVMVIYQDRKRPSGIPERFSGSNSGNTATLTISGTQAMDEADYYCQAWDTRAVVFGGGTKLTVLG
Consider B1, for which the Fold diff with human C2 N268A turned out to be 2 fold; with human C2 M316A, 1 fold; in the test with human C2 V418A, 1 fold; with human C2 S473A it was 2 fold.
